Source: publication PMC8307404, “Crystal Structure-Guided Design of Bisubstrate Inhibitors and Photoluminescent Probes for Protein Kinases of the PIM Family” (Molecules, 2021)
Square brackets hold non-standard residues; d marks the D form. Peptide text beside a SMILES is read from it. * marks the point of attachment. X3 = O=C(CCCCCNCc1nc2c(sc3cc(Br)cnc32)c(=O)[nH]1)*

Key:
Assay in all cases: Kinase profiling (radiometric filter-binding)
Type in all cases: biochemical
PLK1 = PLK1 (Homo sapiens, UniProt P53350); details: PLK1, 1 µM inhibitor; read-out: Residual activity, %
Chain of PLK1 (P53350 whole entry): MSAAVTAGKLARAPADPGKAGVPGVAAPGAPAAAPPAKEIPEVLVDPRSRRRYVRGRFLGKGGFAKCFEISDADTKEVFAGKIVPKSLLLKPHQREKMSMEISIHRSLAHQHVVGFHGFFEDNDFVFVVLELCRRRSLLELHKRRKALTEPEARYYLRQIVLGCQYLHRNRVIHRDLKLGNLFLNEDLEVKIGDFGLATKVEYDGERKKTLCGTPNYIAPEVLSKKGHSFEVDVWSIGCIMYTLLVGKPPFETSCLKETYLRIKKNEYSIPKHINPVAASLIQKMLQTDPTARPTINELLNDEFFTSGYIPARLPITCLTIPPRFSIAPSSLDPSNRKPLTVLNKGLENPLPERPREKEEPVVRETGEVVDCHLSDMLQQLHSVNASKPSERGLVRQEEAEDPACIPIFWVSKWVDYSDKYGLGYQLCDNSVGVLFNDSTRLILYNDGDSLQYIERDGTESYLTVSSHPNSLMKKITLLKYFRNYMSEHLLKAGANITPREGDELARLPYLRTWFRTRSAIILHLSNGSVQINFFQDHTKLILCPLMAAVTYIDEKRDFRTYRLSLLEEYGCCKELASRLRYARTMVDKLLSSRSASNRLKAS
Outline: (§1)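 Human kinase, ATP (≤ KM) and test compound (1 µM final) were combined; phosphorylation was quantified by radiometric filter binding. Activity left was normalised to the control reaction without compound.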

Lck = Lck (Homo sapiens, UniProt P06239); details: 1 µM inhibitor, read-out: Residual activity, %
Chain of Lck (P06239 whole entry): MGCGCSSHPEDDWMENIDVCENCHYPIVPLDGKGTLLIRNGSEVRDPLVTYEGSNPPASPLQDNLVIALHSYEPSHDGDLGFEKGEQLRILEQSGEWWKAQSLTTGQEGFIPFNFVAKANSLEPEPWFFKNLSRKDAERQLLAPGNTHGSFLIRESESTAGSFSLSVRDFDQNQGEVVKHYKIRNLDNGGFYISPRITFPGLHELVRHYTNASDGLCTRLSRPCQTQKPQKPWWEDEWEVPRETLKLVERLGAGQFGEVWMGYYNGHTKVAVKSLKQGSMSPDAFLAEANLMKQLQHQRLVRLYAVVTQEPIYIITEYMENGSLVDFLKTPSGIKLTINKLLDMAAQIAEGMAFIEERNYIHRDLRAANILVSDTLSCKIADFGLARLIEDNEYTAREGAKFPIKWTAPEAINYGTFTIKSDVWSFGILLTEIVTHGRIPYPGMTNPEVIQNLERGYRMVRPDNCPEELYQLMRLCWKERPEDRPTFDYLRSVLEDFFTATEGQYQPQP
Outline: as §1

CK2 = CK2 (Homo sapiens, UniProt P68400); details: CK2, 1 µM inhibitor; read-out: Residual activity, %
Chain of CK2 (P68400 whole entry): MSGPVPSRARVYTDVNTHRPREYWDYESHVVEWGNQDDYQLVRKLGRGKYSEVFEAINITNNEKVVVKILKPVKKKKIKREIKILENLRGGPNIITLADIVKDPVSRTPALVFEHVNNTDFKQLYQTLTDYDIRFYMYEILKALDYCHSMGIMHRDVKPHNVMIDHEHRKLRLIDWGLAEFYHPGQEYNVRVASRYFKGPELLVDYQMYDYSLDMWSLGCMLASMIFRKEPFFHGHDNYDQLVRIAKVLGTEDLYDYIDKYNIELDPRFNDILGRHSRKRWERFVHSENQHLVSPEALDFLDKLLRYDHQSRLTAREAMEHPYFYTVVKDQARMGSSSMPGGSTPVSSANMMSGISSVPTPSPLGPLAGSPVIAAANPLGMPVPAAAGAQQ
Outline: as §1

TTBK1 = TTBK1 (Homo sapiens, UniProt Q5TCY1); details: TTBK1, 1 µM inhibitor; read-out: Residual activity, %
Chain of TTBK1 (Q5TCY1 whole entry): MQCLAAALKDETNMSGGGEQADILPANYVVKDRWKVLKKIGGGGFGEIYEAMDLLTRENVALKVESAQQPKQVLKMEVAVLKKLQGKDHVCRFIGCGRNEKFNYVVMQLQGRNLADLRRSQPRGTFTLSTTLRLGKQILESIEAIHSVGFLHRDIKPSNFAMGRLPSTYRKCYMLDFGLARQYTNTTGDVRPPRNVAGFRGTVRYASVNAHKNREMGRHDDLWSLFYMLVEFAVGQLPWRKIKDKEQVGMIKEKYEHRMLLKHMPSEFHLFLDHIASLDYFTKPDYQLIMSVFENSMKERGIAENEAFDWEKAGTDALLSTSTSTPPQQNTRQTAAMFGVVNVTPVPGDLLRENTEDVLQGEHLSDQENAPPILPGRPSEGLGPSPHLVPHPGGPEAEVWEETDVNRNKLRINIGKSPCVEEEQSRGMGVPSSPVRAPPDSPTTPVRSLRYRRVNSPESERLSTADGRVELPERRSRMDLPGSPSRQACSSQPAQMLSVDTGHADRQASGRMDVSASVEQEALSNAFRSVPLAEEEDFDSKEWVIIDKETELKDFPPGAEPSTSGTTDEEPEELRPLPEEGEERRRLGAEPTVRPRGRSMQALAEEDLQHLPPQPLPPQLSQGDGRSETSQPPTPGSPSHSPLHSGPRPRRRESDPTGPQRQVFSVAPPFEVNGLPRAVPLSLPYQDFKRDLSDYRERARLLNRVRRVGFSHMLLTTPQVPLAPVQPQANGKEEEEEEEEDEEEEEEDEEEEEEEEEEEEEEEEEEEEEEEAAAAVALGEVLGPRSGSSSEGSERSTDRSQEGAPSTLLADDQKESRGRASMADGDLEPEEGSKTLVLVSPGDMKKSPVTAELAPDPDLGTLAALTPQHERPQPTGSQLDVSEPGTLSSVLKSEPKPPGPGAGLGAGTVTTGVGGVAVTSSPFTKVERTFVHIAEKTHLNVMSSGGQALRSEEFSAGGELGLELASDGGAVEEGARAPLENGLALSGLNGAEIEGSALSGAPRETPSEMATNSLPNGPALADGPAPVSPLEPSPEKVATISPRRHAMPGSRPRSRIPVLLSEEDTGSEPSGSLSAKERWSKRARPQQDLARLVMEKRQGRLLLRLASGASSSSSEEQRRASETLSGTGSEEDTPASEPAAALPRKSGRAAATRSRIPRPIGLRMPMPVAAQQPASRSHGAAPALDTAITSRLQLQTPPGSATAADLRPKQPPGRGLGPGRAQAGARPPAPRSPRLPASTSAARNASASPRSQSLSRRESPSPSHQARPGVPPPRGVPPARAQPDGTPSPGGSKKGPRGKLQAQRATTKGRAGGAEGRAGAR
Outline: as §1

MAP4K3 = molecular target: T1, MAP4K3 (Homo sapiens, UniProt Q8IVH8); details: MAP4K3, 1 µM inhibitor; read-out: Residual activity, %
T1 sequence (Q8IVH8 1-894): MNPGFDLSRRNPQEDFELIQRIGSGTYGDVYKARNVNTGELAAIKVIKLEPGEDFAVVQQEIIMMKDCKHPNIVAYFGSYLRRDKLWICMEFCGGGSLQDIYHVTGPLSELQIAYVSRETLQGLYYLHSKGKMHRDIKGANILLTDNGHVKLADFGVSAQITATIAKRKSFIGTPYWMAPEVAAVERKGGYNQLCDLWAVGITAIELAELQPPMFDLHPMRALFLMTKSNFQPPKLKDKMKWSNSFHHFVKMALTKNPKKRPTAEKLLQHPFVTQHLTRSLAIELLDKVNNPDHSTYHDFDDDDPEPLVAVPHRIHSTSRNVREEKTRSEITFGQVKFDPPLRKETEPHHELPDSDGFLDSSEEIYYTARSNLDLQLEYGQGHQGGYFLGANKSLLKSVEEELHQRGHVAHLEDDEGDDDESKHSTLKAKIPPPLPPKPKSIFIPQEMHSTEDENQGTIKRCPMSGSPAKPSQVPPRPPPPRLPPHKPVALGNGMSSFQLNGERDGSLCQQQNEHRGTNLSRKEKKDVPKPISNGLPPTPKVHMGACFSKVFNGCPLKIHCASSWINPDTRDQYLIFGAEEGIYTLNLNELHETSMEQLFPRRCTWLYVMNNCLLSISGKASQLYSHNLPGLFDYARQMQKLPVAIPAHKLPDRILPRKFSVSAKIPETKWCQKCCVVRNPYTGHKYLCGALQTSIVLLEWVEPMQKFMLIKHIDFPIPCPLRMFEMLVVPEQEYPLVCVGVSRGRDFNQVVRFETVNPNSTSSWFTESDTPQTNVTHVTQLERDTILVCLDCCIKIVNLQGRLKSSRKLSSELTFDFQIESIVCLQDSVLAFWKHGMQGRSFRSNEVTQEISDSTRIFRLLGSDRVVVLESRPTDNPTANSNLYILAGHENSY
Outline: as §1

CDK9-Cyclin T1 = CDK9-Cyclin T1 (Homo sapiens, UniProt P50750); details: CDK9-Cyclin T1, 1 µM inhibitor; read-out: Residual activity, %
Chain of CDK9-Cyclin T1 (P50750 whole entry): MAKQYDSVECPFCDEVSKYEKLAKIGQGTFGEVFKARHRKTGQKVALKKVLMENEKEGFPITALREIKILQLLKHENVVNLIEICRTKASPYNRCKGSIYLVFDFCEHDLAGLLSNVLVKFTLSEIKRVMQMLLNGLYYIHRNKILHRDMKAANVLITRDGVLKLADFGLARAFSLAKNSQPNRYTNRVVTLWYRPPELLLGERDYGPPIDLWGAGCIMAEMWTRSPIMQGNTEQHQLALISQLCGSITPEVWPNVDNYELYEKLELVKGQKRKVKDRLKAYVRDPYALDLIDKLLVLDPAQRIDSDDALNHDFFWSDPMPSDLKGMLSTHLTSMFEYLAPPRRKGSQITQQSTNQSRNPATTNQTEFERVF
Chain of CDK9-Cyclin T1 (O60563 whole entry partner): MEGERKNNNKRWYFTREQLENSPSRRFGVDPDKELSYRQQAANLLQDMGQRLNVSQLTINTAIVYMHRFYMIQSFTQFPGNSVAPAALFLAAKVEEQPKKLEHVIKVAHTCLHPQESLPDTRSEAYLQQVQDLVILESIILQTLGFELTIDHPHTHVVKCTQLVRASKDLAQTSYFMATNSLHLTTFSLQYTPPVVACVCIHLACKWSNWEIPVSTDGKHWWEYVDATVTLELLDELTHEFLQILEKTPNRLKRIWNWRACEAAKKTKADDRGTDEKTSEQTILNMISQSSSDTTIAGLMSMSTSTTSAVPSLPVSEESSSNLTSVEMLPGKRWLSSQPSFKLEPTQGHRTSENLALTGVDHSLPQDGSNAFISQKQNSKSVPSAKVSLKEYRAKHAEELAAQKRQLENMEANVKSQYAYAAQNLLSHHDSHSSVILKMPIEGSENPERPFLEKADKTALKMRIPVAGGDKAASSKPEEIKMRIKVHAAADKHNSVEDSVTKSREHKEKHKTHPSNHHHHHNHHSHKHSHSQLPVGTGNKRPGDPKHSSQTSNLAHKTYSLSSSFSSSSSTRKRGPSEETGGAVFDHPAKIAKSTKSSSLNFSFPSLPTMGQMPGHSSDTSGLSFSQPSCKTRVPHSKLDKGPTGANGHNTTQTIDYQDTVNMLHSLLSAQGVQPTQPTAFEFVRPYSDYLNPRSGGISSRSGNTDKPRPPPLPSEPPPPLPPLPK
Outline: as §1

JAK2 = JAK2 (Homo sapiens, UniProt O60674); details: JAK2, 1 µM inhibitor; read-out: Residual activity, %
Outline: as §1

NEK2 = molecular target: T2, NEK2 (Homo sapiens, UniProt P51955); details: NEK2 (letter lost), 1 µM inhibitor; read-out: Residual activity, %
T2 sequence (P51955 1-445): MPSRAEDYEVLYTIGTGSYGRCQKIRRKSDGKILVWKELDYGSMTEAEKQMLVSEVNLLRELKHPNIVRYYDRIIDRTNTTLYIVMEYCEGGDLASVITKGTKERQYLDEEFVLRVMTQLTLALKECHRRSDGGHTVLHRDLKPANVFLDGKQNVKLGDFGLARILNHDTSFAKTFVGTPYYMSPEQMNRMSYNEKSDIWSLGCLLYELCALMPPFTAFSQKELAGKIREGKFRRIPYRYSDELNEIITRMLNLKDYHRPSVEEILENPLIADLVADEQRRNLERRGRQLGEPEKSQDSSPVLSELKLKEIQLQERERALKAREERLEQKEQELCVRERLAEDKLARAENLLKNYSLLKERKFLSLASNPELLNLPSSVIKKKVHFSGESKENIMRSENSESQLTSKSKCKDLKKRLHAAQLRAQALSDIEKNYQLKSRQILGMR
Outline: as §1

MARK1 = MARK1 (Homo sapiens, UniProt Q9P0L2); details: MARK1, 1 µM inhibitor; read-out: Residual activity, %
Chain of MARK1 (Q9P0L2 whole entry): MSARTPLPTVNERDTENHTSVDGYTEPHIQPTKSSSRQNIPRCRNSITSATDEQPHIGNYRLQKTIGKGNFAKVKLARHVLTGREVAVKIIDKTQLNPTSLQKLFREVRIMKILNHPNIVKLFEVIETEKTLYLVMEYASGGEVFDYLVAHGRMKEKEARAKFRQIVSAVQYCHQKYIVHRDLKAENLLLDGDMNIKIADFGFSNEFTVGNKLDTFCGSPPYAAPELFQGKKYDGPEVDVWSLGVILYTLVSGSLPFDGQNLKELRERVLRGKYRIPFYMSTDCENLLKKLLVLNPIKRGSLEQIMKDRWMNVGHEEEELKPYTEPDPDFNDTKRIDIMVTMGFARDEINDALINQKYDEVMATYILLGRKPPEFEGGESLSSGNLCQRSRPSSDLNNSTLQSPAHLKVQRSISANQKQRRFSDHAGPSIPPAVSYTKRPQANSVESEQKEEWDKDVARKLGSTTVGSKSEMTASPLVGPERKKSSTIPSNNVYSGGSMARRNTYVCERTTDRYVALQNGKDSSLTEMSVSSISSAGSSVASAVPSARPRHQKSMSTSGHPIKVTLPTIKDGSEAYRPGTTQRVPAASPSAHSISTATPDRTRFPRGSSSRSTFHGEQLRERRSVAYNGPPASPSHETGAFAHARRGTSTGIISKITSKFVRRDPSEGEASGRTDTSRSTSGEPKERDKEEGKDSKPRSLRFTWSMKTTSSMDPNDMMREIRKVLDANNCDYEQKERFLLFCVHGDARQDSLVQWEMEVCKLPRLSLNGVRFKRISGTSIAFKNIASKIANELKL
Outline: as §1

MARK4 = molecular target: T3, MARK4 (Homo sapiens, UniProt Q96L34); details: MARK4, 1 µM inhibitor; read-out: Residual activity, %
T3 sequence (Q96L34 1-752): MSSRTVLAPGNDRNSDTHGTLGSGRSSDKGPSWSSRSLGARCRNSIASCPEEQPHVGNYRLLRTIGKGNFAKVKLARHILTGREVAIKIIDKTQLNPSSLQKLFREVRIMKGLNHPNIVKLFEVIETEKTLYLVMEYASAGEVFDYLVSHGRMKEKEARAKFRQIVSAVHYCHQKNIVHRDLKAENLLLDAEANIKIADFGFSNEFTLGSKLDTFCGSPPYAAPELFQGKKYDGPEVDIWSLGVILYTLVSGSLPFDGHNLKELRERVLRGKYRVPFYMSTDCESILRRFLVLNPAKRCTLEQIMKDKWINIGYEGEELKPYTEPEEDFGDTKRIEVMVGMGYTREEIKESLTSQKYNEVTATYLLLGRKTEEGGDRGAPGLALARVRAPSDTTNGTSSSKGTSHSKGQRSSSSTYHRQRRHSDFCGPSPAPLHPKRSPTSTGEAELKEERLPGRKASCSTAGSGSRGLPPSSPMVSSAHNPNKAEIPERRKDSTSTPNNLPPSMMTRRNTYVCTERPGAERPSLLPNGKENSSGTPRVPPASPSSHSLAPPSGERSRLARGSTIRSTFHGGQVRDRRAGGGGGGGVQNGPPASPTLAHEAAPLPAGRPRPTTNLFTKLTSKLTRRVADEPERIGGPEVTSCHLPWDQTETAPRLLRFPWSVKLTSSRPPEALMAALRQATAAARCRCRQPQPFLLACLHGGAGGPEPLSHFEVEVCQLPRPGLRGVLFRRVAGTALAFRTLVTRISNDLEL
Outline: as §1

Compound | remaining activity at 1 µM (PLK1) | remaining activity at 1 µM (Lck) | remaining activity at 1 µM (CK2) | remaining activity at 1 µM (TTBK1) | remaining activity at 1 µM (MAP4K3) | remaining activity at 1 µM (CDK9-Cyclin T1) | remaining activity at 1 µM (JAK2) | remaining activity at 1 µM (NEK2) | remaining activity at 1 µM (MARK1) | remaining activity at 1 µM (MARK4)
N=C(N)NCCC[C@@H](NC(=O)CCCCCNC(=O)Cn1cnc2c(I)c(I)c(I)c(I)c21)C(=O)N[C@H](CCCNC(=N)N)C(=O)N[C@H](CCCNC(=N)N)C(=O)N[C@H](CCCNC(=N)N)C(=O)N[C@H](CCCNC(=N)N)C(=O)N[C@H](CCCNC(=N)N)C(=O)N[C@H](CCCCN)C(N)=O [ARC-3125, TIBI-CH2-C(=O)-Ahx-(D-Arg)6-D-Lys-NH2] | 40 ± 4% | 226 ± 7% | 30 ± 2% | 123 ± 25% | 17 ± 1% | 55 ± 1% | 115 ± 5% | 21 ± 3% | 76 ± 4% | 92 ± 3%
N=C(N)NCCC[C@@H](NC(=O)CNC(=O)[C@@H](CCCNC(=N)N)NC(=O)[C@@H](CCCNC(=N)N)NC(=O)CCCCCCCNCc1nc2c(sc3cc(Br)cnc32)c(=O)[nH]1)C(=O)N[C@H](CCCCN)C(N)=O [Compound 1, BPTP-Aoc-(D-Arg)2-Gly-D-Arg-D-Lys-NH2] | 99 ± 1% | 94 ± 18% | 77 ± 9% | 116 ± 5% | 119 ± 1% | 110 ± 10% | 93 ± 14% | 108 ± 5% | 110 ± 15% | 124 ± 14%
N=C(N)NCCC[C@@H](NC(=O)CCCCCNCc1nc2c(sc3cc(Br)cnc32)c(=O)[nH]1)C(=O)N[C@H](CCCNC(=N)N)C(=O)N[C@H](CCCNC(=N)N)C(=O)N[C@H](CCCNC(=N)N)C(=O)N[C@H](CCCNC(=N)N)C(=O)N[C@H](CCCNC(=N)N)C(=O)N[C@H](CCCCN)C(N)=O [ARC-3126, BPTP-Ahx-(D-Arg)6-D-Lys-NH2] (X3-[dR][dR][dR][dR][dR][dR][dK]-NH2) | 50 ± 16% | 132 ± 28% | 8 ± 3% | 103 ± 4% | 81 ± 7% | 104 ± 3% | 116 ± 9% | 91 ± 2% | 94% | 119 ± 7%
N=C(N)NCCC[C@@H](NC(=O)CNC(=O)[C@@H](CCCNC(=N)N)NC(=O)[C@@H](CCCNC(=N)N)NC(=O)Cn1cc(CNCc2nc3c(sc4ccc(Br)cc43)c(=O)[nH]2)nn1)C(=O)N[C@H](CCCCN)C(N)=O [Compound 3, BBTP-Amt-(D-Arg)2-Gly-D-Arg-D-Lys-NH2] | 97 ± 7% | 78 ± 6% | 57 ± 7% | 99 ± 6% | 105 ± 2% | 90 ± 18% | 72 ± 21% | 92 ± 1% | 106 ± 2% | 90 ± 12%
N=C(N)NCCC[C@@H](NC(=O)CNC(=O)[C@@H](CCCNC(=N)N)NC(=O)[C@@H](CCCNC(=N)N)NC(=O)CCCCCCCNCc1nc2c(sc3ccc(Br)cc32)c(=O)[nH]1)C(=O)N[C@H](CCCCN)C(N)=O [Compound 2, BBTP-Aoc-(D-Arg)2-Gly-D-Arg-D-Lys-NH2] | 99 ± 1% | 103 ± 18% | 63 ± 12% | 97 ± 7% | 118 ± 3% | 101 ± 20% | 82 ± 16% | 119 ± 12% | 113 ± 1% | 128 ± 3%
